The results in this text go back to the supplement of paper PMC5998384.

The subject of data set [1] is HeLa Kyoto. Description: solubility in G1/S (NP-40 vs SDS abundance) (log2 ratio); higher = more soluble. The note with it: cell cycle stage: G1/S.
The subject of data set [2] is HeLa Kyoto. In words: melting temperature (median over replicates), in situ; higher = more thermally stable.
Data set [3] deals with HeLa Kyoto. Description: solubility change mitosis vs G1/S (difference of NP-40 vs SDS log2 ratios) (log2 ratio difference); higher = more soluble in mitosis.
Data set [4] relates to HeLa Kyoto. In words: thermal stability score vs G1/S (z-score of summed log2 fold changes over temperatures); higher = more thermally stable than in G1/S.
Where [5] appears, read: cell cycle stage: early G1 (4.5 h after nocodazole release).
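Throughout, for melting temperature (median over replicates), in situ: HeLa Kyoto cells synchronized by double thymidine or nocodazole block, proteins quantified by TMT10plex mass spectrometry, three independent biological replicates.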
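Throughout, for solubility change mitosis vs G1/S (difference of NP-40 vs SDS log2 ratios): synchronized HeLa Kyoto cells (double thymidine block for G1/S, nocodazole release for mitosis), protein amounts in NP-40 versus SDS lysates quantified by mass spectrometry, three biological replicates.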
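Throughout, for solubility in G1/S (NP-40 vs SDS abundance): HeLa Kyoto cells arrested at G1/S by double thymidine block, proteins quantified by TMT10plex mass spectrometry in mild NP-40 versus SDS extracts, three biological replicates.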
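Throughout, for thermal stability score vs G1/S (z-score of summed log2 fold changes over temperatures): synchronized HeLa Kyoto cells, proteins quantified by TMT10plex mass spectrometry, three biological replicates, mitosis taken 0.5 h after nocodazole release, G1/S directly after double thymidine block.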

Turning to ABCC1, in data set [1], the “solubility in G1/S (log2)” value was found to be 0.0337. The melting temperature in data set [2] (cell cycle stage: G1/S) was 54.5 °C; in data set [2] (cell cycle stage: mitosis), 53.7 °C. The “solubility change mitosis (log2)” value in data set [3] was -0.0751. Also, the figures for the thermal stability score in data set [4] (setting [5]) and in data set [4] (cell cycle stage: mitosis) were -0.781 and -0.316, respectively.

Consider NBAS, for which, in data set [1], the “solubility in G1/S (log2)” value is -0.197. The melting temperature in data set [2] (cell cycle stage: G1/S) was determined as 49.8 °C; in data set [2] (cell cycle stage: mitosis) it was 50.1 °C. In addition, the “solubility change mitosis (log2)” value in data set [3] is -0.169. In addition, the thermal stability score in data set [4] (setting [5]) turned out to be 0.362; in data set [4] (cell cycle stage: mitosis), 1.51.

Turning to “MAEGDEAARGQQPHQGLWRRRRTSDPSAAVNHVSSTTSLGENYEDDDLVNSDEVMKKPCPVQIVLAHEDDHNFELDEEALEQILLQEHIRDLNIVVVSVAGAFRKGKSFLLDFMLRYMYNKDSQSWIGGNNEPLTGFTWRGGCERETTGIQVWNEVFVIDRPNGTKVAVLLMDTQGAFDSQSTIKDCATVFALSTMTSSVQVYNLSQNIQEDDLQHLQLFTEYGRLAMEEIYQKPFQTLMFLIRDWSYPYEHSYGLEGGKQFLEKRLQVKQNQHEELQNVRKHIHNCFSNLGCFLLPHPGLKVATNPSFDGRLKDIDEDFKRELRNLVPLLLAPENLVEKEISGSKVTCRDLVEYFKAYIKIYQGEELPHPKSMLQATAEANNLAAVAGARDTYCKSMEQVCGGDKPYIAPSDLERKHLDLKEVAIKQFRSVKKMGGDEFCRRYQDQLEAEIEETYANFIKHNDGKNIFYAARTPATLFAVMFAMYIISGLTGFIGLNSIAVLCNLVMGLALIFLCTWAYVKYSGEFREIGTVIDQIAETLWEQVLKPLGDNLMEENIRQSVTNSIKAGLTDQVSHHARLKTD [ATL2]”, the “solubility in G1/S (log2)” value in data set [1] is -0.0336. For the same substance, the melting temperature in data set [2] (cell cycle stage: G1/S) and in data set [2] (cell cycle stage: mitosis) was 51.8 °C in each case. The “solubility change mitosis (log2)” value in data set [3] was -0.192. Further, the values for the thermal stability score in data set [4] (setting [5]) and in data set [4] (cell cycle stage: mitosis) were -0.416 and -0.584, respectively.

“MYTLLSGLYKYMFQKDEYCILILGLDNAGKTTFLEQSKTRFNKNYKGMSLSKITTTVGLNIGTVDVGKARLMFWDLGGQEELQSLWDKYYAECHGVIYVIDSTDEERLAESKQAFEKVVTSEALCGVPVLVLANKQDVETCLSIPDIKTAFSDCTSKIGRRDCLTQACSALTGKGVREGIEWMVKCVVRNVHRPPRQRDIT [ARFRP1]”: in data set [1], the “solubility in G1/S (log2)” value was 0.0143. For the same substance, the melting temperature in data set [2] (cell cycle stage: mitosis) came out at 52.8 °C. For the same substance, in data set [3], the “solubility change mitosis (log2)” value is -0.0831. Also, the thermal stability score in data set [4] (setting [5]) was 0.162; in data set [4] (cell cycle stage: mitosis), -0.992.

Regarding “MFVARSIAADHKDLIHDVSFDFHGRRMATCSSDQSVKVWDKSESGDWHCTASWKTHSGSVWRVTWAHPEFGQVLASCSFDRTAAVWEEIVGESNDKLRGQSHWVKRTTLVDSRTSVTDVKFAPKHMGLMLATCSADGIVRIYEAPDVMNLSQWSLQHEISCKLSCSCISWNPSSSRAHSPMIAVGSDDSSPNAMAKVQIFEYNENTRKYAKAETLMTVTDPVHDIAFAPNLGRSFHILAIATKDVRIFTLKPVRKELTSSGGPTKFEIHIVAQFDNHNSQVWRVSWNITGTVLASSGDDGCVRLWKANYMDNWKCTGILKGNGSPVNGSSQQGTSNPSLGSTIPSLQNSLNGSSAGRKHS [SEH1L]”, in data set [1], the “solubility in G1/S (log2)” value is -0.79. The melting temperature in data set [2] (cell cycle stage: G1/S) turned out to be 54.8 °C; in data set [2] (cell cycle stage: mitosis) it was 51.6 °C. The “solubility change mitosis (log2)” value in data set [3] turned out to be 0.295. In addition, the thermal stability score in data set [4] (setting [5]) is -3.19; in data set [4] (cell cycle stage: mitosis), -4.18.

In the case of NAV1, in data set [1], the “solubility in G1/S (log2)” value was -0.141. Moreover, the melting temperature is 47.2 °C in data set [2] (cell cycle stage: G1/S) and 49 °C in data set [2] (cell cycle stage: mitosis). For the same substance, the “solubility change mitosis (log2)” value in data set [3] turned out to be 0.0198. Also, the results for the thermal stability score in data set [4] (setting [5]) and in data set [4] (cell cycle stage: mitosis) were 1.35 and 2.83, respectively.

Turning to “MNGKRPAEPGPARVGKKGKKEVMAEFSDAVTEETLKKQVAEAWSRRTPFSHEVIVMDMDPFLHCVIPNFIQSQDFLEGLQKELMNLDFHEKYNDLYKFQQSDDLKKRREPHISTLRKILFEDFRSWLSDISKIDLESTIDMSCAKYEFTDALLCHDDELEGRRIAFILYLVPPWDRSMGGTLDLYSIDEHFQPKQIVKSLIPSWNKLVFFEVSPVSFHQVSEVLSEEKSRLSISGWFHGPSLTRPPNYFEPPIPRSPHIPQDHEILYDWINPTYLDMDYQVQIQEEFEESSEILLKEFLKPEKFTKVCEALEHGHVEWSSRGPPNKRFYEKAEESKLPEILKECMKLFRSEALFLLLSNFTGLKLHFLAPSEEDEMNDKKEAETTDITEEGTSHSPPEPENNQMAISNNSQQSNEQTDPEPEENETKKESSVPMCQGELRHWKTGHYTLIHDHSKAEFALDLILYCGCEGWEPEYGGFTSYIAKGEDEELLTVNPESNSLALVYRDRETLKFVKHINHRSLEQKKTFPNRTGFWDFSFIYYE [OGFOD1]”, the “solubility in G1/S (log2)” value in data set [1] was -0.0197. Further, the melting temperature was 53.1 °C in data set [2] (cell cycle stage: G1/S) and 53.6 °C in data set [2] (cell cycle stage: mitosis). Besides, in data set [3], the “solubility change mitosis (log2)” value was -0.151. The figures for the thermal stability score in data set [4] (setting [5]) and in data set [4] (cell cycle stage: mitosis) were 1.93 and 0.186, respectively.

As to “MLADLGLIGTIGEDDEVPVEPESDSGDEEEEGPIVLGRRQKALGKNRSADFNPDFVFTEKEGTYDGSWALADVMSQLKKKRAATTLDEKIEKVRKKRKTEDKEAKSGKLEKEKEAKEGSEPKEQEDLQENDEEGSEDEASETDYSSADENILTKADTLKVKDRKKKKKKGQEAGGFFEDASQYDENLSFQDMNLSRPLLKAITAMGFKQPTPIQKACIPVGLLGKDICACAATGTGKTAAFALPVLERLIYKPRQAPVTRVLVLVPTRELGIQVHSVTRQLAQFCNITTCLAVGGLDVKSQEAALRAAPDILIATPGRLIDHLHNCPSFHLSSIEVLILDEADRMLDEYFEEQMKEIIRMCSHHRQTMLFSATMTDEVKDLASVSLKNPVRIFVNSNTDVAPFLRQEFIRIRPNREGDREAIVAALLTRTFTDHVMLFTQTKKQAHRMHILLGLMGLQVGELHGNLSQTQRLEALRRFKDEQIDILVATDVAARGLDIEGVKTVINFTMPNTIKHYVHRVGRTARAGRAGRSVSLVGEDERKMLKEIVKAAKAPVKARILPQDVILKFRDKIEKMEKDVYAVLQLEAEEKEMQQSEAQINTAKRLLEKGKEAVVQEPERSWFQTKEERKKEKIAKALQEFDLALRGKKKRKKFMKDAKKKGEMTAEERSQFEILKAQMFAERLAKRNRRAKRARAMPEEEPVRGPAKKQKQGKKSVFDEELTNTSKKALKQYRAGPSFEERKQLGLPHQRRGGNFKSKSRYKRRK [DDX27]”, the “solubility in G1/S (log2)” value in data set [1] is -2.35. Also, the melting temperature was found to be 52.4 °C in data set [2] (cell cycle stage: G1/S) and 52.2 °C in data set [2] (cell cycle stage: mitosis). Besides, in data set [3], the “solubility change mitosis (log2)” value amounted to 1.15. Also, the thermal stability score in data set [4] (setting [5]) was found to be 1.57; in data set [4] (cell cycle stage: mitosis) it was 2.15.
